Data as given in article doi:10.1101/2024.07.18.604040.

Biological target: recombinant human λS Full-Length free light chain (rλS-LC) (human)

“recombinant human λS Full-Length free light chain (rλS-LC) (natural protein)” gave a stoichiometry N of 2.
